Experimental findings from patent US20060263802A1 (CRUCELL HOLLAND B V, published 2006) are described below.

Holding throughout (assay): PEPSCAN ELISA, looped 15-mer, 10 ug/ml
Assay [1] deals with looped peptide […] (rabies virus strain ERA).
Assay [2] shares this target. The source holds these as a separate data set.
The target is the same in assay [3]. This is another data set of the same source.
Assay [4] has the same target. This is another data set of the same source.
Assay [5] has the same target. The source holds these as a separate data set.
For assay [6] the target is unchanged. The source holds these as a separate data set.
For assay [7], the target named is looped peptide … (rabies virus strain ERA).
Assay [8] has the same target. The source holds these as a separate data set.
For assay [9] the target is unchanged. The source holds these as a separate data set.
For assay [10] the target is unchanged. This is another data set of the same source.
Assay [11] has the same target. The source holds these as a separate data set.
The target is the same in assay [12]. This is another data set of the same source.
For assay [13] the target is unchanged. This is another data set of the same source.
The target is the same in assay [14]. This is another data set of the same source.
The target is the same in assay [15]. This is another data set of the same source.

B1: human monoclonal antibody CRJB (antibody, V domains shown)
VH: QITLKETGPTLVKPTQTLTLTCTFSGFSLSTSGVGVGWIRQPPGKALEWVTLIYWDDDKRYSPSLENRVTIRKDTSKNQVALTMTNMDPLDTGTYYCAHRQHISSFPWFDSWGQGTLVTVSS
VL: SYVLTQPPSVSVAPGKTARINCGGNNIEYRSVHWYQQKSGQAPVAVIYDNSDRPSGIPERFSGSKSGNTATLTISRVEAGDEADYYCQVWDISSDVVFGGGTKLTVLG
As for B1, the OD value in the assay with looped peptide […] [1] came to 87; in the assay with looped peptide […] [2] it was 71; in the assay with looped peptide […] [3] it was 186; with looped peptide […] [4], 132; in the assay with looped peptide […] [5] it was 156; with looped peptide […] [6], 206. The OD value in [7] amounted to 79; in [8] it was 76; in assay [9], 60; in assay [10], 79; in [11], 92; in [12], 74. Further, the OD value in [13] was found to be 63; in assay [14], 72; in assay [15] it was 68.
